Reference: patent US20230029307A1

Target: rhVEGF165 (R&D Systems, Cat #293-VE-010) (human) (UniProt P15692)
Assay: cell-based or functional assay

rhVEGF165 (R&D Systems, Cat #293-VE-010) (human), sequence (P15692 other isoform, or with tags, fused parts or gaps limits assumed): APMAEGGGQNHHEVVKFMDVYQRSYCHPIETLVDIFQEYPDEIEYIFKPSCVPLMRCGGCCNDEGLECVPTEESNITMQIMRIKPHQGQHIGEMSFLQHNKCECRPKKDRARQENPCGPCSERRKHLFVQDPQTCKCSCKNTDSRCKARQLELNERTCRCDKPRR

Substance: Aflibercept (EYLEA) (from UniProt P17948 129-230; P35968 225-327) (Fc fusion)
- maximal % inhibition of VEGF-stimulated BCEC proliferation: < 80%
